From article doi:10.1101/2020.12.12.421834 (bioRxiv, 2020)

T1: PD1 N-terminal loop-GST fusion protein (Homo sapiens)
T1 chain: LDSPDRPWNP


What was measured:
[1] = molecular target: T1, PD1 N-terminal loop-GST fusion protein; assay: ELISA
[2] = molecular target: full-length human PD1 expressed on the surface of NS1 cells (human, UniProt Q15116); assay: flow cytometry on cells
[3] = molecular target: T2, PD1 extracellular domain, without Fc fusion (Homo sapiens, UniProt Q15116); assay: ELISA
[4] = molecular target: T2, PD1 extracellular domain, without Fc …; assay: SPR

T2 sequence (Q15116 25-170): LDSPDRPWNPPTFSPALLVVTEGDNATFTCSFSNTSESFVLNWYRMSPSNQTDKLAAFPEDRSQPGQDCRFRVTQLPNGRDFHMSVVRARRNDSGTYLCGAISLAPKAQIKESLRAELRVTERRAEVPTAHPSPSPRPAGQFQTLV
full-length human PD1 expressed on the surface of NS1 cells, sequence (Q15116 25-288): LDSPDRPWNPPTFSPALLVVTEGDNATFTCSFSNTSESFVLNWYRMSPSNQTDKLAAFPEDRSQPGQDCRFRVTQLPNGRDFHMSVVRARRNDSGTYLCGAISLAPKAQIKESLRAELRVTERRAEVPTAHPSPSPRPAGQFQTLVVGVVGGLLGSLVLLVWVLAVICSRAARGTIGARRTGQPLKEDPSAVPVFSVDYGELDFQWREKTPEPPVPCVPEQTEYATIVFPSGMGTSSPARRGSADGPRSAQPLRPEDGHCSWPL

Row | Binder | binding result [1] | binding result [2] | binding result [3] | binding result [4]
1 | M2-4 anti-PD1 antibody (human IgG4/kappa, C-terminal 6xHis) (antibody, V domains shown) VH: QVQLVESGGDVVQPGGSLRLSCAASGVAFRNYGMHWVRQAPGKGLEWVAIIWYDGSNKYYADSVKGRFTISRDNSKNMLYLQMNSLRAEDTAMYYCARLSIGTTHYFDTDDYWGQGTSVTVSS VL: EIVLTQSPATLSLSPGERATLSCRASQSVSSYLAWYQQKVGQAPRLIIFDASNRATGIPARFSGSGSGTDFTLTITSLDPEDFAVYYCQQRSAWPLTFGGGTKVEIR | binds | binds |  | 
2 | M1-3 anti-PD1 antibody (human IgG4/kappa, C-terminal 6xHis) (antibody, V domains shown) VH: QEWLVESGGDVVQPGGSLRLSCATSKVTFNDFGIHWVRQAPGKGLEWVAIIWYDGSRNHYADSVRGRFTLSRDNSKNMVHLHMSSLRTEDTAMYYCARGIHSNDDYWGQGTMVTVSS VL: EIVLTQSPATLSLSPGERATLSCRTSQSVSSDLAWFQQKPGQAPRLFIFDASKRVNGIPARFSGSGSGTDFTLTISSLEPEDFAVYYCQQRTDWPLTFGGGSRVEIK | binds | binds | binds | 
3 | M1-7 anti-PD1 antibody (human IgG4/kappa, C-terminal 6xHis) (antibody, V domains shown) VH: QLQLVESGGDVVQPGGSLRLSCAASGVVFSDFGLEWVRQAPGKGLEWLAVIWYDGSRKHYADSVKGRFTISRDNSKNMLYLQMNSLRVEDTAMYYCARCHSKEDYWGQGTLVTVSS VL: EIEVTQSPATLSLSPGERATLSCRASQSIDTDLAWFQQRPGQTPRLIIYDASKRATGIPARFSGGGSGTDFTLTISSLEPEDFAVYYCQQRTTWPLTFGGGTKVEIK |  | binds |  | 
4 | M2-1 anti-PD1 antibody (human IgG4/k, without C-terminal His tag) (antibody, V domains shown) VH: QVQLVESGGDVVQPGGSLRLSCSASGLVFRDYGMNWVRQAPGKGLEWVGLIWYDGTKKYYSDFVKGRFTISRDNSKNMLYLQMNNLRAEDTAIYYCARFLIGATRRGNAMDYWGQGTSVIVSS VL: EVVLTQSPATLSLSPGERATLSCRASQSIDSDLAWSQQKTGQPPRLIIYDASNRATGIPARFSGSGSGTDFTLTISSLEPEDFAVYYCQQRSDWPLTFGGGTKVEIR |  |  |  | binds
5 | M2-1 anti-PD1 antibody (human IgG4/kappa, C-terminal 6xHis) (antibody, V domains shown) VH: QVQLVESGGDVVQPGGSLRLSCSASGLVFRDYGMNWVRQAPGKGLEWVGLIWYDGTKKYYSDFVKGRFTISRDNSKNMLYLQMNNLRAEDTAIYYCARFLIGATRRGNAMDYWGQGTSVIVSS VL: EVVLTQSPATLSLSPGERATLSCRASQSIDSDLAWSQQKTGQPPRLIIYDASNRATGIPARFSGSGSGTDFTLTISSLEPEDFAVYYCQQRSDWPLTFGGGTKVEIR | binds | binds | binds | 
6 | M2-2 anti-PD1 antibody (human IgG4/kappa, C-terminal 6xHis) (antibody, V domains shown) VH: QVQLVESGGDVVQPGGSLRLSCSASGLVISDYGMNWVRQAPGKGLEWVGLIWYDGSKKYYSDFVKGRFTISRDNSKNILYLQMNNLRAEDTAMYYCARFLIGATRRGNAMDYWGQGTSVTVSS VL: EVVLTQSPATLSLSPGERATLSCRASQSIDSDLAWSQQKPGQPPRLIIYDASNRATGIPARFSGSGSGTDFTLTISSLEPEDFAVYYCQQRSDWPLTFGGGTKVEIR | binds | binds | binds | 
7 | M1-5 anti-PD1 antibody (human IgG4/kappa, C-terminal 6xHis) (antibody, V domains shown) VH: QVQLVESGGDVVQPGGSLRLSCTVSGAVFRDLGMEWVRQAPGKGLEWLAVIWYDGGRKHYADSVKGRFTISRDNSRNMLFLQMNGLRVDDTAMYYCTRSHSTDDYWGQGTLVTVSS VL: EIVLTQSPATLSVSPGERATLSCRASQSISSDLAWFQQKPGQAPRLIIHGASKRATGIPARFSGSGSGTDFTLTISSLEPEDFAVYYCQQRDSWPLNFGGGTKVEIK | binds | binds | binds | 
8 | 17D8 anti-PD1 antibody (human IgG4/k, without C-terminal His tag) (antibody, V domains shown) VH: QVQLVESGGDVVQPGGSLRLSCAASGVAFSNYGMHWVRQAPGKGLEWVAVIWYDGSNKYYADSVKGRFTISRDNSKNMLYLQMNSLRAEDTAMYYCARNDDYWGQGTLVTVSS VL: EIVLTQSPATLSLSPGERATLSCRASQSVSSYLAWYQQKPGQAPRLIIYDASNRATGIPARFSGSGSGTDFTLTISSLEPEDFAVYYCQQRSNWPLTFGGGTKVEIK |  |  |  | binds
9 | M2-3 anti-PD1 antibody (human IgG4/kappa, C-terminal 6xHis) (antibody, V domains shown) VH: QGHLVESGGDVVLPGGSLRLSCTESGVDLSDFGIHWVRQTPGKGLEWVALIWYDGSKKFYADSVKDRFTISRDNSKNMVYLEMISLRVEDTAMYFCARGIRRGPWFTYWGPGTLVTVST VL: EIVLTQSPVILSLSPGERATLSCRASQSISSDLAWFQQTPGQAPRLIIYDASNRATGIPARFSGSGSGTDFTLTISSLEPEDFAVYYCQQRSNWPLTFGGGTKVEIK | binds | binds | binds | 
10 | M1-4 anti-PD1 antibody (human IgG4/kappa, C-terminal 6xHis) (antibody, V domains shown) VH: QVQLVESGGDVVQPGGSLRLSCAVSGVTFGDFGFEWVRQAPGKGLEWVAVIWYDGSRKHYAESVRGRFTISRDNSRNMMYLEMTGLRVEDTAKYYCTRSHSHEDYWGQGTLVTVSS VL: EIVLTQSPATLSLSPGERATLSCRASQSISNYLAWFQQKSGQAPRLIIHDAFKRAAGIPTRFSGSGSGTDFTLTISSLEPEDFAVYYCQQRDNWPLNFGGGTKVEIK | binds | binds | binds | 
11 | M1-5 anti-PD1 antibody (human IgG4/k, without C-terminal His tag) (antibody, V domains shown) VH: QVQLVESGGDVVQPGGSLRLSCTVSGAVFRDLGMEWVRQAPGKGLEWLAVIWYDGGRKHYADSVKGRFTISRDNSRNMLFLQMNGLRVDDTAMYYCTRSHSTDDYWGQGTLVTVSS VL: EIVLTQSPATLSVSPGERATLSCRASQSISSDLAWFQQKPGQAPRLIIHGASKRATGIPARFSGSGSGTDFTLTISSLEPEDFAVYYCQQRDSWPLNFGGGTKVEIK |  |  |  | binds

Other lines, results leading:

Row | binding result [1] | binding result [2] | binding result [3] | binding result [4] | Binder
12 | no binding | binds |  |  | M1-2 anti-PD1 antibody (human IgG4/kappa, C-terminal 6xHis) (antibody, V domains shown) VH: QVQLVESGGDVVQPGGSLRLSCAASGVAFSDYGMEWVRQAPGKGLEWLAVIWYDGSRKHYADSVKGRFTISRDNSKNILYLQMNSLRAEDTAMYYCARCHSKDDYWGQGTLVTVSS VL: EIVLTQFPATLSLSPGERATLSCRTSQNIDSDLAWFQQKPGQAPRLIIYDASNRATGIPARFSGGGSGTDFTLTITSLEPEDFAVYYCQQRTTWPLTFGGGTKVEIK
13 | binds | binds | binds |  | M2-5 anti-PD1 antibody (human IgG4/kappa, C-terminal 6xHis) (antibody, V domains shown) VH: QVQLVESGGDVVQPGGSLRLSCAASGVVFSDYGLYWVRQAPGKGLEWVALIWYDGSKKFYADSVKGRFSISRDNSKNMLYLQMNNLRADDSAIYYCSRGIRQGPWFAYWGQGTRVTVSP VL: EIVLTQSPATLSLSPGERATLSCRASQSISSDLTWFQQKPGQAPRLIIYDASNRATGIPARFSGSGSGTDFTLTISSLEPEDFVVYYCLQRSDWPLTFGGGTKVEIK
14 |  | binds |  |  | 17D8 anti-PD1 antibody (human IgG4/kappa, C-terminal 6xHis) (antibody, V domains shown) VH: QVQLVESGGDVVQPGGSLRLSCAASGVAFSNYGMHWVRQAPGKGLEWVAVIWYDGSNKYYADSVKGRFTISRDNSKNMLYLQMNSLRAEDTAMYYCARNDDYWGQGTLVTVSS VL: EIVLTQSPATLSLSPGERATLSCRASQSVSSYLAWYQQKPGQAPRLIIYDASNRATGIPARFSGSGSGTDFTLTISSLEPEDFAVYYCQQRSNWPLTFGGGTKVEIK
15 | binds | binds |  |  | M1-1 anti-PD1 antibody (human IgG4/kappa, C-terminal 6xHis) (antibody, V domains shown) VH: QVQLVESGGDVVQPGGSLRLSCAASGVAFRDYGMHWVRQAPGKGLEWVAVIWYDGSKKYYGDSVKGRFTVSRDNSKNMLYLEMNGLKAEDTAMYYCARNDDYWGQGTLVTVSS VL: EIVLTQSPATLSLSPGERATLSCRASQSVSNSLSWYQQNPGQSPRLIIYDTSKRATGIPARFSGSGSGTDFTLTINNLETEDFAVYYCHQRSDWPLTFGGGTKVEIK
16 | binds | binds | binds |  | M1-6 anti-PD1 antibody (human IgG4/kappa, C-terminal 6xHis) (antibody, V domains shown) VH: QVQLVESGGDVVQSGGSLRLSCAVSGVVFSDYGFEWVRQAPGKGLEWVAVIWYDGSRKHYADSVQGRFTISRDNFRNMLYLQMTGLRVEDTAKYYCTRSHSHEDYWGQGTLVTVSS VL: EIVLTQSPATLSLSPGERATLSCGASQNIDNSLAWFQQKPGQAPRLIIYDASKRATGIPARFSGSGSGTDFTLTISTLEPEDFAVYYCQQRDHWPLNFGGGTKVEVK
